We go through 125 sequences from the supplement of paper PMC9112550, “Optimization of the antimicrobial peptide Bac7 by deep mutational scanning” (BMC Biology, 2022).

In this data set the test system is Escherichia coli TOP10. The data set is described as follows: shrunken log2 fold change of peptide-encoding DNA abundance (4.5 h post-induction vs induction); higher = less antimicrobial activity (less host growth inhibition). The settings on record: time post-induction: 4.5 h; library: site-saturation at positions 5, 18, 19, 20.
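Further: peptides expressed intracellularly from a pBAD plasmid library in pooled LB shake-flask culture, induced with 0.3% L-arabinose, DNA abundance read by NGS, three biological replicates, DESeq2 with apeglm shrinkage.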

With RRIRPRPPRLPRPRPRPLMIPRP, the “shrunken log2 fold change” value was -0.152.

Take RRIRWRPPRLPRPRPRPCTRPRP: the “shrunken log2 fold change” value is -0.161.

Consider RRIRGRPPRLPRPRPRPWIEPRP, for which the “shrunken log2 fold change” value was -0.0591.

In the case of RRIRGRPPRLPRPRPRPAQCPRP, the “shrunken log2 fold change” value worked out at 0.471.

On to RRIRMRPPRLPRPRPRPWWMPRP, for which the “shrunken log2 fold change” value came out at 0.0885.

For RRIRERPPRLPRPRPRPCLEPRP, the “shrunken log2 fold change” value was -0.116.

In the case of RRIRCRPPRLPRPRPRPFFGPRP, the “shrunken log2 fold change” value is 0.0829.

Turning to RRIRQRPPRLPRPRPRPAEKPRP, the “shrunken log2 fold change” value is -0.00963.

As to RRIRLRPPRLPRPRPRPCMFPRP, the “shrunken log2 fold change” value is -0.431.

As for RRIRHRPPRLPRPRPRPNVFPRP, the “shrunken log2 fold change” value was -0.116.

Regarding RRIRMRPPRLPRPRPRPFHGPRP, the “shrunken log2 fold change” value is -0.128.

For the sequence RRIRKRPPRLPRPRPRPFENPRP, the “shrunken log2 fold change” value turned out to be 0.167.

For RRIRVRPPRLPRPRPRPFTTPRP, the “shrunken log2 fold change” value is -0.211.

RRIRARPPRLPRPRPRPKVDPRP: the “shrunken log2 fold change” value was -0.0797.

Consider RRIRQRPPRLPRPRPRPGSAPRP, for which the “shrunken log2 fold change” value is 0.104.

RRIRQRPPRLPRPRPRPSRIPRP: the “shrunken log2 fold change” value was -0.305.

Regarding RRIRNRPPRLPRPRPRPKELPRP, the “shrunken log2 fold change” value came out at 0.0238.

For RRIRDRPPRLPRPRPRPPTEPRP, the “shrunken log2 fold change” value was determined as 0.274.

RRIRCRPPRLPRPRPRPWTIPRP: the “shrunken log2 fold change” value is -0.0777.

As for RRIRLRPPRLPRPRPRPMCTPRP, the “shrunken log2 fold change” value was -0.0698.

In the case of RRIRTRPPRLPRPRPRPANCPRP, the “shrunken log2 fold change” value is -0.0321.

Consider RRIRGRPPRLPRPRPRPGYGPRP, for which the “shrunken log2 fold change” value is -0.0363.

For RRIRYRPPRLPRPRPRPMSCPRP, the “shrunken log2 fold change” value is -0.115.

Consider RRIRIRPPRLPRPRPRPMNAPRP, for which the “shrunken log2 fold change” value is -0.0262.

In the case of RRIRIRPPRLPRPRPRPIKKPRP, the “shrunken log2 fold change” value is -0.0505.

As for RRIRMRPPRLPRPRPRPDCHPRP, the “shrunken log2 fold change” value turned out to be 1.49.

Turning to RRIRNRPPRLPRPRPRPVGKPRP, the “shrunken log2 fold change” value came to 0.028.

Turning to RRIRDRPPRLPRPRPRPIRAPRP, the “shrunken log2 fold change” value was 0.0872.

In the case of RRIRLRPPRLPRPRPRPGRGPRP, the “shrunken log2 fold change” value stood at 0.696.

On to RRIRQRPPRLPRPRPRPTGPPRP, for which the “shrunken log2 fold change” value was determined as 0.22.

Consider RRIRLRPPRLPRPRPRPMADPRP, for which the “shrunken log2 fold change” value came to 0.0237.

Regarding RRIRKRPPRLPRPRPRPKMPPRP, the “shrunken log2 fold change” value came to 0.0535.

With RRIRKRPPRLPRPRPRPNYCPRP, the “shrunken log2 fold change” value was -0.0369.

Take RRIRWRPPRLPRPRPRPCHCPRP: the “shrunken log2 fold change” value was -0.102.

For RRIRWRPPRLPRPRPRPEPHPRP, the “shrunken log2 fold change” value was found to be 0.65.

Turning to RRIRARPPRLPRPRPRPIYVPRP, the “shrunken log2 fold change” value is -0.25.

Take RRIRDRPPRLPRPRPRPDFCPRP: the “shrunken log2 fold change” value is -0.0409.

In the case of RRIRSRPPRLPRPRPRPYLWPRP, the “shrunken log2 fold change” value is -0.0115.

Consider RRIRYRPPRLPRPRPRPHYQPRP, for which the “shrunken log2 fold change” value was -0.522.

With RRIRCRPPRLPRPRPRPENHPRP, the “shrunken log2 fold change” value is -0.415.

Consider RRIRFRPPRLPRPRPRPKLWPRP, for which the “shrunken log2 fold change” value is 0.287.

Regarding RRIRFRPPRLPRPRPRPGTWPRP, the “shrunken log2 fold change” value was -0.153.

Turning to RRIRPRPPRLPRPRPRPKASPRP, the “shrunken log2 fold change” value was 0.105.

Take RRIRNRPPRLPRPRPRPYLKPRP: the “shrunken log2 fold change” value is -0.151.

In the case of RRIRWRPPRLPRPRPRPRDEPRP, the “shrunken log2 fold change” value worked out at 0.0548.

As for RRIRFRPPRLPRPRPRPQALPRP, the “shrunken log2 fold change” value is -0.137.

As for RRIRFRPPRLPRPRPRPHVRPRP, the “shrunken log2 fold change” value is -0.271.

With RRIRKRPPRLPRPRPRPALSPRP, the “shrunken log2 fold change” value was found to be 0.253.

Consider RRIRPRPPRLPRPRPRPTNIPRP, for which the “shrunken log2 fold change” value was -0.687.

Take RRIRMRPPRLPRPRPRPDARPRP: the “shrunken log2 fold change” value is -0.0547.

For the sequence RRIRQRPPRLPRPRPRPDNSPRP, the “shrunken log2 fold change” value is -0.0422.

For the sequence RRIRTRPPRLPRPRPRPDYNPRP, the “shrunken log2 fold change” value was -0.0768.

Take RRIRSRPPRLPRPRPRPNCMPRP: the “shrunken log2 fold change” value is -0.0954.

For RRIRWRPPRLPRPRPRPTTRPRP, the “shrunken log2 fold change” value turned out to be 0.672.

In the case of RRIRHRPPRLPRPRPRPDPNPRP, the “shrunken log2 fold change” value is -0.0239.

Regarding RRIRDRPPRLPRPRPRPYKVPRP, the “shrunken log2 fold change” value is -0.687.

Take RRIRQRPPRLPRPRPRPALKPRP: the “shrunken log2 fold change” value came out at 0.0439.

With RRIRPRPPRLPRPRPRPTWWPRP, the “shrunken log2 fold change” value came out at 0.426.

As to RRIRCRPPRLPRPRPRPEKEPRP, the “shrunken log2 fold change” value is -0.0494.

Regarding RRIRLRPPRLPRPRPRPWNWPRP, the “shrunken log2 fold change” value came to 0.0524.

In the case of RRIRQRPPRLPRPRPRPIMRPRP, the “shrunken log2 fold change” value turned out to be 0.0932.

With RRIRYRPPRLPRPRPRPIFHPRP, the “shrunken log2 fold change” value was -0.456.

On to RRIRKRPPRLPRPRPRPFPCPRP, for which the “shrunken log2 fold change” value is 0.0314.

As to RRIRSRPPRLPRPRPRPSSIPRP, the “shrunken log2 fold change” value is -0.379.

As to RRIRCRPPRLPRPRPRPNGYPRP, the “shrunken log2 fold change” value was -0.122.

In the case of RRIRQRPPRLPRPRPRPHQFPRP, the “shrunken log2 fold change” value turned out to be 0.0486.

Consider RRIRGRPPRLPRPRPRPMVPPRP, for which the “shrunken log2 fold change” value worked out at 0.202.

RRIRKRPPRLPRPRPRPWAFPRP: the “shrunken log2 fold change” value is -0.016.

For RRIRIRPPRLPRPRPRPVVLPRP, the “shrunken log2 fold change” value is -0.21.

For the sequence RRIRFRPPRLPRPRPRPTIHPRP, the “shrunken log2 fold change” value was found to be 0.865.

Consider RRIRFRPPRLPRPRPRPSCHPRP, for which the “shrunken log2 fold change” value was -0.495.

Turning to RRIRYRPPRLPRPRPRPCWEPRP, the “shrunken log2 fold change” value is -0.288.

Take RRIRFRPPRLPRPRPRPANPPRP: the “shrunken log2 fold change” value was -0.156.

With RRIRIRPPRLPRPRPRPCVPPRP, the “shrunken log2 fold change” value was -0.162.

On to RRIRERPPRLPRPRPRPTWCPRP, for which the “shrunken log2 fold change” value was determined as 3.3.

RRIRNRPPRLPRPRPRPVADPRP: the “shrunken log2 fold change” value turned out to be 0.217.

As for RRIRLRPPRLPRPRPRPFKKPRP, the “shrunken log2 fold change” value came out at 0.0344.

As for RRIRNRPPRLPRPRPRPDWGPRP, the “shrunken log2 fold change” value amounted to 0.128.

Consider RRIRLRPPRLPRPRPRPDIDPRP, for which the “shrunken log2 fold change” value was found to be 0.0249.

Consider RRIRNRPPRLPRPRPRPNGNPRP, for which the “shrunken log2 fold change” value is -0.0621.

As to RRIRNRPPRLPRPRPRPQAIPRP, the “shrunken log2 fold change” value is 0.00297.

For RRIRQRPPRLPRPRPRPTPHPRP, the “shrunken log2 fold change” value turned out to be 0.397.

For the sequence RRIRYRPPRLPRPRPRPDTFPRP, the “shrunken log2 fold change” value is -0.016.

For RRIRKRPPRLPRPRPRPNSAPRP, the “shrunken log2 fold change” value was 0.393.

For the sequence RRIRIRPPRLPRPRPRPMEHPRP, the “shrunken log2 fold change” value is -0.199.

As to RRIRARPPRLPRPRPRPSQEPRP, the “shrunken log2 fold change” value stood at 0.0769.

For the sequence RRIRGRPPRLPRPRPRPNLMPRP, the “shrunken log2 fold change” value amounted to 0.144.

With RRIRWRPPRLPRPRPRPDLIPRP, the “shrunken log2 fold change” value was 0.0332.

On to RRIRWRPPRLPRPRPRPATTPRP, for which the “shrunken log2 fold change” value came to 0.859.

Take RRIRWRPPRLPRPRPRPLQMPRP: the “shrunken log2 fold change” value came to 0.161.

With RRIRYRPPRLPRPRPRPNPSPRP, the “shrunken log2 fold change” value was -0.0272.

RRIRHRPPRLPRPRPRPTYWPRP: the “shrunken log2 fold change” value came to 0.293.

On to RRIRRRPPRLPRPRPRPMGSPRP, for which the “shrunken log2 fold change” value was -0.0322.

Turning to RRIRARPPRLPRPRPRPYQQPRP, the “shrunken log2 fold change” value was -0.316.

For the sequence RRIRVRPPRLPRPRPRPFVNPRP, the “shrunken log2 fold change” value was -0.0619.

Turning to RRIRLRPPRLPRPRPRPWITPRP, the “shrunken log2 fold change” value was -0.028.

With RRIRWRPPRLPRPRPRPKGRPRP, the “shrunken log2 fold change” value worked out at 0.0214.

For the sequence RRIRCRPPRLPRPRPRPAGNPRP, the “shrunken log2 fold change” value worked out at 0.0404.

Take RRIRYRPPRLPRPRPRPDPSPRP: the “shrunken log2 fold change” value is -0.566.

RRIRSRPPRLPRPRPRPQMCPRP: the “shrunken log2 fold change” value was -0.724.

On to RRIRGRPPRLPRPRPRPNIHPRP, for which the “shrunken log2 fold change” value came out at 0.0679.

Turning to RRIRMRPPRLPRPRPRPPWNPRP, the “shrunken log2 fold change” value stood at 0.369.

As to RRIRKRPPRLPRPRPRPWHRPRP, the “shrunken log2 fold change” value is -0.0754.

Regarding RRIRIRPPRLPRPRPRPYQNPRP, the “shrunken log2 fold change” value was -1.1.

Turning to RRIRKRPPRLPRPRPRPYVLPRP, the “shrunken log2 fold change” value is -0.234.

For the sequence RRIRERPPRLPRPRPRPSIWPRP, the “shrunken log2 fold change” value was -0.0411.

RRIRWRPPRLPRPRPRPHCTPRP: the “shrunken log2 fold change” value is -0.401.

Take RRIRMRPPRLPRPRPRPTQFPRP: the “shrunken log2 fold change” value turned out to be 0.178.

On to RRIRCRPPRLPRPRPRPNMWPRP, for which the “shrunken log2 fold change” value was -0.0109.

Take RRIRSRPPRLPRPRPRPVGGPRP: the “shrunken log2 fold change” value turned out to be 0.433.

As to RRIRVRPPRLPRPRPRPNSDPRP, the “shrunken log2 fold change” value is -0.429.

Consider RRIRKRPPRLPRPRPRPQISPRP, for which the “shrunken log2 fold change” value was -0.0814.

Consider RRIRIRPPRLPRPRPRPWRIPRP, for which the “shrunken log2 fold change” value is -0.409.

RRIRYRPPRLPRPRPRPTYYPRP: the “shrunken log2 fold change” value was -1.21.

Turning to RRIRFRPPRLPRPRPRPFYFPRP, the “shrunken log2 fold change” value was -0.681.

For the sequence RRIRKRPPRLPRPRPRPCELPRP, the “shrunken log2 fold change” value is -0.00602.

RRIRTRPPRLPRPRPRPVGPPRP: the “shrunken log2 fold change” value was -0.006.

Take RRIRQRPPRLPRPRPRPPDHPRP: the “shrunken log2 fold change” value is -0.27.

For the sequence RRIRSRPPRLPRPRPRPPTMPRP, the “shrunken log2 fold change” value is -0.00342.

In the case of RRIRERPPRLPRPRPRPAIPPRP, the “shrunken log2 fold change” value is -0.737.

On to RRIRTRPPRLPRPRPRPMQAPRP, for which the “shrunken log2 fold change” value was -0.0247.

Consider RRIRIRPPRLPRPRPRPFYVPRP, for which the “shrunken log2 fold change” value was -1.11.

With RRIRTRPPRLPRPRPRPLIFPRP, the “shrunken log2 fold change” value was -0.446.

For RRIRQRPPRLPRPRPRPGVEPRP, the “shrunken log2 fold change” value was found to be 0.0735.

With RRIRCRPPRLPRPRPRPKGWPRP, the “shrunken log2 fold change” value came to 0.811.
